Assay results: US20220275417A1 (BARCODEBODY, published 2022)

B1: anti-GFP-FLAG-barcode 2 (VHH)
VHH: QVQLVESGGALVQPGGSLRLSCAASGFPVNRYSMRWYRQAPGKEREWVAGMSSAGDRSSYEDSVKGRFTISRDDARNTVYLQMNSLKPEDTAVYYCNVNVGFEYWGQGTQVTVSS
notes: also called anti-GFP nanobody
B2: anti-CD4-FLAG (VHH)
VHH: EVQLVESGGGSVQPGGSLTLSCGTSGRTFNVMGWFRQAPGKEREFVAAVRWSSTGIYYTQYADSVKSRFTISRDNAKNTVYLEMNSLKPEDTAVYYCAADTYNSNPARWDGYDFRGQGTQVTVSS
notes: Secreted from Pichia pastoris with the alpha-factor signal, which is cleaved during secretion; also called Anri-CD4-FLAG; anti-CD4 nanobody with no barcode
B3: anti-CD4 with barcode 4-3 (VHH)
VHH: B2 VHH
notes: secreted from Pichia pastoris
B4: anti-CD4 with barcode 4-1 (VHH)
VHH: B2 VHH
notes: secreted from Pichia pastoris
B5: anti-CD4 with barcode 4-4 (VHH)
VHH: B2 VHH
notes: secreted from Pichia pastoris
B6: anti-CD4 with barcode 4-5 (VHH)
VHH: B2 VHH
notes: secreted from Pichia pastoris
B7: anti-CD4 with barcode 4-7 (VHH)
VHH: B2 VHH
notes: secreted from Pichia pastoris
B8: anti-CD4 with barcode 4-6 (VHH)
VHH: B2 VHH
notes: secreted from Pichia pastoris
B9: anti-CD4 with barcode 4-8 (VHH)
VHH: B2 VHH
notes: secreted from Pichia pastoris
B10: anti-CD4 with barcode 4-2 (VHH)
VHH: B2 VHH
notes: secreted from Pichia pastoris
B11: anti-CD4-FLAG-barcode 1 (VHH)
VHH: B2 VHH
notes: Secreted from Pichia pastoris with the alpha-factor signal, which is cleaved during secretion; also called anti-CD4 nanobody

biological target: T1, CD4 on the surface of HEK293 cells transfected with pCAGGS-CD4-myc (UniProt P01730 26-458, limits assumed); assay: immunofluorescence staining of fixed CD4-expressing HEK293 cells, anti-FLAG-AF488 secondary
T1 construct: whole, on cells; Cells were fixed with 4% paraformaldehyde before staining; also called CD4 surface expressing cells

| Binder | binding result |
| --- | --- |
| B1 | no binding (tested: 3.3 µg/ml) |

biological target: T2, recombinant human sCD4 CF (manufactured by R&D Systems) (human, UniProt P01730 26-390, limits assumed); assay: simultaneous binding assay on CD4-immobilized magnetic beads, barcode cleaved by enterokinase and quantified by LC-MS/MS
T2 construct: Immobilized on the Biacore sensor chip; also called recombinant CD4; CD4 antigen

| Binder | binding result |
| --- | --- |
| B1 | no binding (tested: 0.1 µM) |

biological target: T2, recombinant human sCD4 CF (manufactured …); assay: SPR, Biacore T-200, CD4 immobilized on chip, as in Example 2

| Binder | Kd | koff | kon |
| --- | --- | --- | --- |
| B2 | 26 nM | 0.0037 s⁻¹ | 140000 M⁻¹ s⁻¹ |
| B3 | 26 nM | 0.0036 s⁻¹ | 140000 M⁻¹ s⁻¹ |
| B4 | 21 nM | 0.003 s⁻¹ | 140000 M⁻¹ s⁻¹ |
| B5 | 25 nM | 0.0029 s⁻¹ | 120000 M⁻¹ s⁻¹ |
| B6 | 24 nM | 0.0028 s⁻¹ | 180000 M⁻¹ s⁻¹ |
| B7 | 24 nM | 0.0028 s⁻¹ | 110000 M⁻¹ s⁻¹ |
| B8 | 28 nM | 0.0033 s⁻¹ | 120000 M⁻¹ s⁻¹ |
| B9 | 19 nM | 0.0029 s⁻¹ | 160000 M⁻¹ s⁻¹ |
| B10 | 28 nM | 0.0028 s⁻¹ | 100000 M⁻¹ s⁻¹ |

biological target: T2, recombinant human sCD4 CF (manufactured …); assay: SPR, Biacore T-200, antigen immobilized on chip, nanobody as analyte

| Binder | Kd | koff | kon |
| --- | --- | --- | --- |
| B2 | 42 nM | 0.0054 s⁻¹ | 68000 M⁻¹ s⁻¹ |
| B11 | 52 nM | 0.004 s⁻¹ | 77000 M⁻¹ s⁻¹ |
